According to patent publication US20200199241A1 (Chugai, published 2020):
Residue numbers refer to the chain shown, from its start.

B1: IL6R-2B253/IL6R-L (antibody, human IgG1)
heavy: QVQLQESGPGLVKPSETLSLTCAVSGHSISHDHAWSWVRQPPGEGLEWIGFISYSGITNYNPSLQGRVTISRDNSKNTLYLQMNSLRAEDTAVYYCARSLARTTAMDYWGEGTLVTVSSASTKGPSVFPLAPSSKSTSGGTAALGCLVKDYFPEPVTVSWNSGALTSGVHTFPAVLQSSGLYSLSSVVTVPSSSLGTQTYICNVNHKPSNTKVDKKVEPKSCDKTHTCPPCPAPDLLGGDSVFLFPPKPKDTLMISRTPEVTCVVVDVSHEDPEVKFNWYVDGVEVHNAKTKPREEQYNSTYRVVSVLTVLHQDWLNGKEYKCKMSNKALPAPIEKTISKAKGQPREPQVYTLPPSRDELTKNQVSLTCLVKGFYPSDIAVEWESNGQPENNYKTTPPVLDSDGSFFLYSKLTVDKSRWQQGNVFSCSVMHEALHNHYTQESLSLSP
light: DIQMTQSPSSLSASVGDRVTITCRASQDISSYLNWYQQKPGKAPKLLIYYTSRLHSGVPSRFSGSGSGTDFTFTISSLQPEDIATYYCQQGNTLPYTFGQGTKVEIK
B2: IL6R-2B261/IL6R-L (antibody, human IgG1)
heavy: B1 heavy with Y298D, M325V
light: B1 light
B3: IL6R-BP084/IL6R-L (antibody, human IgG1)
heavy: B1 heavy with D235E, A332K
light: B1 light
B4: IL6R-BP145/IL6R-L (antibody, human IgG1)
heavy: B1 heavy with D235E, L236Y, G239D, M325V
light: B1 light
B5: IL6R-BP181/IL6R-L (antibody, human IgG1)
heavy: B1 heavy with P273G, M325V, K328A, A332K
light: B1 light
B6: IL6R-BP146/IL6R-L (antibody, human IgG1)
heavy: B1 heavy with D235E, L236Y, G239D, M325V, K328A
light: B1 light
B7: IL6R-BP133/IL6R-L (antibody, human IgG1)
heavy: B1 heavy with L236Y, M325V, A332K
light: B1 light
B8: IL6R-BP089/IL6R-L (antibody, human IgG1)
heavy: B1 heavy with D235E, L236Y, M325V, K328A, A332K
light: B1 light
B9: IL6R-BP085/IL6R-L (antibody, human IgG1)
heavy: B1 heavy with D235E, G239D, M325V, A332K
light: B1 light
B10: IL6R-BP088/IL6R-L (antibody, human IgG1)
heavy: B1 heavy with D235E, G239D, M325V, K328A, A332K
light: B1 light
B11: IL6R-BP129/IL6R-L (antibody, human IgG1)
heavy: B1 heavy with Y298D, M325V, A332K
light: B1 light
B12: IL6R-BP148/IL6R-L (antibody, human IgG1)
heavy: B1 heavy with L236Y, G239D, M325V, K328A, A332K
light: B1 light
B13: IL6R-BP144/IL6R-L (antibody, human IgG1)
heavy: B1 heavy with D235E, G239D, M325V, K328A
light: B1 light
B14: IL6R-BP132/IL6R-L (antibody, human IgG1)
heavy: B1 heavy with M325V, K328A, A332K
light: B1 light
B15: IL6R-BP083/IL6R-L (antibody, human IgG1)
heavy: B1 heavy with D235E, Y298D, M325V, A332K
light: B1 light
B16: IL6R-BP176/IL6R-L (antibody, human IgG1)
heavy: B1 heavy with M325V, K328D, A332K
light: B1 light
B17: IL6R-BP193/IL6R-L (antibody, human IgG1)
heavy: B1 heavy with H270D, P273G, M325V, A332K
light: B1 light
notes: Anti-IL-6R human IgG1 variant; copies: 2 + 2
B18: IL6R-BP199/IL6R-L (antibody, human IgG1)
heavy: B1 heavy with M325V, K328D, A332R
light: B1 light
notes: as for B17
B19: IL6R-BP147/IL6R-L (antibody, human IgG1)
heavy: B1 heavy with D235E, L236Y, G239D, M325V, K328A, A332K
light: B1 light
B20: IL6R-BP182/IL6R-L (antibody, human IgG1)
heavy: B1 heavy with P273G, Y298D, M325V, A332K
light: B1 light

These binders were tested against T1, FcγRIIb (human, UniProt P31994 43-217, limits assumed) (assay: ratio of SPR KDs; reference IL6R-B3/IL6R-L).
T1 construct: SPR analyte; also called FcγIIB; CD32
T1 sequence: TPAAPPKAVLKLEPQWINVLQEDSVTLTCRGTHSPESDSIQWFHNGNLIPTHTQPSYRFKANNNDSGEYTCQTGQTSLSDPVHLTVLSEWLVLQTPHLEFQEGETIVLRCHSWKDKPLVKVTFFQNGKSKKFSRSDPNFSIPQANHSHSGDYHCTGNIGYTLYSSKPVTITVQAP
Excerpt: (§1) Furthermore, KD(IIaR)/KD(IIb) and KD(IIaH)/KD(IIb) in the table respectively represent the value obtained by dividing the KD value of each variant for FcγRIIaR by the KD value of each variant for FcγRIIb, and the value obtained by dividing the KD value of each variant for FcγRIIaH by the KD value of each variant for FcγRIIb. KD(IIb) of the parent polypeptide/KD(IIb) of the altered polypeptide refers to the value obtained by dividing the KD value of the parent polypeptide for FcγRIIb by the KD value of each variant for FcγRIIb.

Point of comparison: B15, “KD(IIb) of the parent polypeptide/KD(IIb) of altered polypeptide” value 3.9. Against it:
- B1 — higher, 7.2
- B2 — lower, 3
- B3 — higher, 6.1
- B4 — higher, 9.1
- B5 — higher, 19.3
- B6 — higher, 13.7
- B7 — higher, 5.6
- B8 — higher, 8
- B9 — higher, 9.6
- B10 — higher, 14.3
- B11 — higher, 6
- B12 — higher, 41.4
- B13 — the same, 3.9
- B14 — higher, 8.4
- B16 — higher, 8.6

These binders were tested against T2, FcγRIa (human, UniProt P12314 16-292, limits assumed) (assay: SPR (Biacore), method of Example 14).
T2 construct: also called CD64
T2 sequence (P12314 16-292 limits assumed): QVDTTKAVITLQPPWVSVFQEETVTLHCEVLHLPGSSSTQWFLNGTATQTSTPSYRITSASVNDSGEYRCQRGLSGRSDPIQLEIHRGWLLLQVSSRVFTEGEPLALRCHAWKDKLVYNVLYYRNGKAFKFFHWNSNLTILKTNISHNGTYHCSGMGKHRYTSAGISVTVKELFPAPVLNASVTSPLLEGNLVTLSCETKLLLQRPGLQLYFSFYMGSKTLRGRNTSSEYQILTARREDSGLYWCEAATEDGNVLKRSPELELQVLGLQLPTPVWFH
Excerpt: as §1

Point of comparison: B18, Kd 0.0064 µM. Against it:
- B17 — within 1.5-fold, 0.0063 µM

Each binder was assayed against T3, FcγRIIb (human, UniProt P31994 43-217, limits assumed) (assay: SPR (Biacore), method of Example 14).
T3 construct: also called FcγIIB; CD32
T3 sequence: T1 sequence
Excerpt: as §1

Point of comparison: B18, Kd 0.49 µM. Against it:
- B17 — 4.1-fold lower, 0.12 µM

These binders were tested against T4, FcγRIIa type H (human, UniProt P12318 36-217) (assay: SPR (Biacore), method of Example 14).
T4 construct: also called FcγRIIaH; FcγRIIa(H)
T4 sequence: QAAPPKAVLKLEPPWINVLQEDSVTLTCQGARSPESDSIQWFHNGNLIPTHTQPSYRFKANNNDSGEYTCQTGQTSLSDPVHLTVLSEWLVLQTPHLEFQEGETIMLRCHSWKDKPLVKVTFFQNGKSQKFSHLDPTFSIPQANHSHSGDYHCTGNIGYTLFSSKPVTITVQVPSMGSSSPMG
Excerpt: as §1

Point of comparison: B18, Kd 26 µM. Against it:
- B17 — within 1.5-fold, 25 µM

Each binder was assayed against T3, FcγRIIb (assay: ratio of SPR KD values, parent IL6R-B3/IL6R-L).

Point of comparison: B18, “KD(IIb) of the parent polypeptide/KD(IIb) of altered polypeptide” value 6.3 fold. Against it:
- B17 — higher, 25.5 fold

The binders below were run against T5, FcγRIIIa type V (human, UniProt P08637 17-208, limits assumed) (assay: SPR (Biacore), antibody captured, FcγR analyte).
T5 construct: SPR analyte; allotype V158 was used here; also called FcγRIIIaV; FcγRIIIa(V)
T5 sequence (P08637 other isoform, or with tags, fused parts or gaps limits assumed): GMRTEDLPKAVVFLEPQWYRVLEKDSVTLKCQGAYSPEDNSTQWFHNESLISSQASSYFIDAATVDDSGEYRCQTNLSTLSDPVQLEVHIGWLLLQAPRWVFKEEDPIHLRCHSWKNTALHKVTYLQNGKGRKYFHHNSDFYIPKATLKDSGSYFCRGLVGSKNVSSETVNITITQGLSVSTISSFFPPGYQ
Excerpt: as §1

Point of comparison: B4, Kd 45 µM. Against it:
- B1 — within 1.5-fold, 50 µM
- B2 — 1.6-fold higher, 73 µM
- B3 — within 1.5-fold, 67 µM
- B5 — within 1.5-fold, 57 µM
- B19 — within 1.5-fold, 33 µM
- B7 — within 1.5-fold, 62 µM
- B8 — within 1.5-fold, 51 µM
- B9 — 1.5-fold higher, 68 µM
- B10 — within 1.5-fold, 57 µM
- B11 — 1.7-fold higher, 75 µM
- B12 — 1.5-fold lower, 30 µM
- B13 — within 1.5-fold, 55 µM
- B14 — within 1.5-fold, 58 µM
- B20 — within 1.5-fold, 58 µM
- B15 — within 1.5-fold, 66 µM
- B16 — within 1.5-fold, 54 µM

What follows are binders tested against T6, FcγRIa (human, UniProt P12314 16-292, limits assumed) (assay: SPR (Biacore), antibody captured, FcγR analyte).
T6 construct: SPR analyte; also called CD64
T6 sequence (P12314 16-292 limits assumed): as the sequence (P12314 16-292 limits assumed) above
Excerpt: as §1

Point of comparison: B15, Kd 0.038 µM. Against it:
- B1 — 27-fold lower, 0.0014 µM
- B2 — 4.2-fold lower, 0.009 µM
- B3 — 5.4-fold lower, 0.007 µM
- B4 — 3.2-fold higher, 0.12 µM
- B5 — 5.1-fold lower, 0.0075 µM
- B6 — 1.9-fold higher, 0.074 µM
- B19 — 3.7-fold higher, 0.14 µM
- B7 — 3.4-fold higher, 0.13 µM
- B8 — 1.7-fold higher, 0.063 µM
- B9 — 7.6-fold higher, 0.29 µM
- B10 — 10-fold higher, 0.39 µM
- B11 — 1.5-fold lower, 0.025 µM
- B12 — 2.3-fold higher, 0.089 µM
- B13 — within 1.5-fold, 0.037 µM
- B14 — 2.5-fold lower, 0.015 µM
- B20 — 3.8-fold lower, 0.01 µM
- B16 — 5.2-fold lower, 0.0073 µM

The binders below were run against T7, FcγRIIa type H (human, UniProt P12318 36-217) (assay: SPR (Biacore), antibody captured, FcγR analyte).
T7 construct: SPR analyte; also called FcγRIIaH
T7 sequence: T4 sequence
Excerpt: as §1

Point of comparison: B6, Kd 18 µM. Against it:
- B1 — within 1.5-fold, 13 µM
- B2 — 1.8-fold higher, 33 µM
- B3 — within 1.5-fold, 24 µM
- B4 — within 1.5-fold, 17 µM
- B5 — within 1.5-fold, 26 µM
- B19 — 3.5-fold lower, 5.1 µM
- B7 — within 1.5-fold, 26 µM
- B8 — within 1.5-fold, 20 µM
- B9 — within 1.5-fold, 24 µM
- B10 — within 1.5-fold, 23 µM
- B11 — 2.2-fold higher, 40 µM
- B12 — 2.6-fold lower, ~7 µM
- B13 — 2-fold higher, 36 µM
- B14 — 1.7-fold higher, 30 µM
- B20 — 1.6-fold higher, 28 µM
- B15 — 2.4-fold higher, 44 µM
- B16 — 1.7-fold higher, 30 µM

Each binder was assayed against T1, FcγRIIb (assay: SPR (Biacore), antibody captured, FcγR analyte).
Excerpt: as §1

Point of comparison: B11, Kd 0.52 µM. Against it:
- B2 — 1.9-fold higher, 1 µM
- B3 — within 1.5-fold, 0.5 µM
- B4 — 1.5-fold lower, 0.34 µM
- B5 — 3.2-fold lower, 0.16 µM
- B6 — 2.3-fold lower, 0.23 µM
- B19 — 7.9-fold lower, 0.066 µM
- B7 — within 1.5-fold, 0.56 µM
- B8 — within 1.5-fold, 0.39 µM
- B9 — 1.6-fold lower, 0.32 µM
- B10 — 2.4-fold lower, 0.22 µM
- B12 — 6.9-fold lower, 0.075 µM
- B13 — 1.5-fold higher, 0.79 µM
- B14 — within 1.5-fold, 0.37 µM
- B15 — 1.5-fold higher, 0.79 µM
- B16 — within 1.5-fold, 0.36 µM

Molecular target: T8, FcγRIIa type R (human, UniProt P12318 36-217)
T8 construct: SPR analyte; also called FcγRIIaR; FcγRIIa(R)
T8 chain: T4 sequence with H133R
Assay: SPR (Biacore), antibody captured, FcγR analyte
Excerpt: as §1

Point of comparison: B6, Kd 2.1 µM. Against it:
- B1 — 2.4-fold higher, 5 µM
- B3 — 3.4-fold higher, 7.2 µM
- B4 — 1.6-fold higher, 3.4 µM
- B5 — 1.5-fold higher, 3.2 µM
- B19 — 2.4-fold lower, 0.89 µM
- B8 — 3-fold higher, 6.4 µM
- B9 — 2-fold higher, 4.2 µM
- B10 — within 1.5-fold, 2.9 µM
- B11 — 7.1-fold higher, 15 µM
- B12 — 1.9-fold lower, 1.1 µM
- B13 — 3.3-fold higher, 6.9 µM
- B14 — 3.8-fold higher, 8 µM
- B20 — within 1.5-fold, 2.6 µM
- B16 — 3.3-fold higher, 6.9 µM
